{
  "source": "paper PMC2712759",
  "about": "(2009)",
  "binders": {"B1": {"name": "recombinant normal PABPN1 (wt-PABPN1) from E. coli (natural protein)", "chain": "MAAAAAAAAAAGAAGGRGSGPGRRRHLVPGAGGEAGEGAPGGAGDYGNGLESEELEPEELLLEPEPEPEPEEEPPRPRAPPGAPGPGPGSGAPGSQEEEEEPGLVEGDPGDGAIEDPELEAIKARVREMEEEAEKLKELQNEVEKQMNMSPPPGNAGPVIMSIEEKMEADARSIYVGNVDYGATAEELEAHFHGCGSVNRVTILCDKFSGHPKGFAYIEFSDKESVRTSLALDESLFRGRQIKVIPKRTNRPGISTTDRGFPRARYRARTTNYNSSRSRFYSGFNSRPRGRVYRGRARATSWYSPY"}},
  "target": "purified recombinant Hsp70 (UniProt P0DMV8 1-641)",
  "sequence (P0DMV8 whole entry)": "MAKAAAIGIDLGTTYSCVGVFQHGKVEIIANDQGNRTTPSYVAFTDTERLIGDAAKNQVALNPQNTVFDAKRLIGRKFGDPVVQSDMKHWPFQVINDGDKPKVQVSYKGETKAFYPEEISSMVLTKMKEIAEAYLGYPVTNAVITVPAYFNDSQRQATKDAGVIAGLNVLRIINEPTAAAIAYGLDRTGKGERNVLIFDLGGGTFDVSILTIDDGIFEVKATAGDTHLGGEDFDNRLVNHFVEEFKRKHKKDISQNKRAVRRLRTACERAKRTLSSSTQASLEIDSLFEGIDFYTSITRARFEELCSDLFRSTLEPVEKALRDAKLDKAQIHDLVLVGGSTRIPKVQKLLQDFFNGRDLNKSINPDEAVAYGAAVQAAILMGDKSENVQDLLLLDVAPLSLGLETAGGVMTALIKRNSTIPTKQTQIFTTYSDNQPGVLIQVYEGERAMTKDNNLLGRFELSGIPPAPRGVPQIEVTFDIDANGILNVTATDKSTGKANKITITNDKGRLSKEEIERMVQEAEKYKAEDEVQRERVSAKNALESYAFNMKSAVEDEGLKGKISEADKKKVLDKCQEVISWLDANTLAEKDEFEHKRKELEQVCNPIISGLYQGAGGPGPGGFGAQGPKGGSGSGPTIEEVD",
  "data": [
    {"binder": "B1", "values": [
      {"measurement": "Kd", "result": 14, "unit": "µM"}
    ]}
  ]
}
